Assay results as given in article PMC3702670 (Nature structural & molecular biology, 2013).
Where two headings read alike, the source gives them in different places.

Columns and labels:
GR DBD WT [1] = biological target: T1, GR DBD WT (rat, UniProt P06536 440-525); experiment: NMR
GR DBD WT [2] = biological target: T1, GR DBD WT; experiment: NMR; remark: listed apart in the source
GR DBD A477T [3] = biological target: T2, GR DBD A477T (rat, UniProt P06536 440-525, A477T); experiment: NMR
GR DBD A477T [4] = biological target: T2, GR DBD A477T; experiment: NMR; remark: listed apart in the source
GR DBD WT [5] = biological target: T1, GR DBD WT; experiment: SPR
GR DBD WT [6] = biological target: T1, GR DBD WT; experiment: NMR; remark: listed apart in the source
[…] = biological target: the molecule itself; experiment: […]
SPR = biological target: the molecule itself; experiment: SPR

B1: Pal-ttg GBS (dsDNA)
DNA 1: GTACAGAACATTGTGTTCTTCGAC
DNA 2: GTCGAAGAACACAATGTTCTGTAC
- binding result (GR DBD WT [1]): binds

B2: Sgk GBS (dsDNA)
DNA 1: GTACAGAACATTTTGTCCGTCGAC
DNA 2: GTCGACGGACAAAATGTTCTGTAC
- binding result (GR DBD WT [2]): binds
- binding result (GR DBD A477T [3]): binds

B3: Gilz GBS (dsDNA)
DNA 1: GTACAGAACATTGGGTTCCTCGAC
DNA 2: GTCGAGGAACCCAATGTTCTGTAC
- binding result (GR DBD WT [1]): binds

B4: Fkbp5 GBS (dsDNA)
DNA 1: GTACAGAACAGGGTGTTCTTCGAC
DNA 2: GTCGAAGAACACCCTGTTCTGTAC
- binding result (GR DBD WT [2]): binds
- binding result (GR DBD A477T [4]): binds

B5: Pal-R GBS (dsDNA)
DNA 1: GTACAGAACATTTTGTTCTTCGAC
DNA 2: GTCGAAGAACAAAATGTTCTGTAC
- binding result (GR DBD WT [5]): binds

B6: Sgk-ggg GBS (dsDNA)
DNA 1: GTACAGAACAGGGTGTCCGTCGAC
DNA 2: GTCGACGGACACCCTGTTCTGTAC
- binding result (GR DBD WT [2]): binds

B7: Gha GBS (dsDNA)
DNA 1: GTACGGAACATAATGTTCCTCGAC
DNA 2: GTCGAGGAACATTATGTTCCGTAC
- binding result (GR DBD A477T [3]): binds
- binding result (GR DBD WT [6]): binds

B8: rat glucocorticoid receptor DNA binding domain, wild type (domain or fragment)
chain: CLVCSDEASGCHYGVLTCGSCKVFFKRAVEGQHNYLCAGRNDCIIDKIRRKNCPACRYRKCLQAGMNLEARKTKKKIKGIQQATAG
- binding result ([…]): binds

B9: rat glucocorticoid receptor DNA binding domain, [change] mutant (domain or fragment)
chain: CLVCSDEASGCHYGVLTCGSCKVFFKRAVEGQHNYLCTGRNDCIIDKIRRKNCPACRYRKCLQAGMNLEARKTKKKIKGIQQATAG
- binding result (SPR): binds
